Here are results for six molecules from patent US20090035322A1 (Regeneron, published 2009).

Where a chain is given by its changes, count along the chain named.

For assay [1], the target named is T1, human CD20 (human, UniProt P11836 1-297).
T1 sequence: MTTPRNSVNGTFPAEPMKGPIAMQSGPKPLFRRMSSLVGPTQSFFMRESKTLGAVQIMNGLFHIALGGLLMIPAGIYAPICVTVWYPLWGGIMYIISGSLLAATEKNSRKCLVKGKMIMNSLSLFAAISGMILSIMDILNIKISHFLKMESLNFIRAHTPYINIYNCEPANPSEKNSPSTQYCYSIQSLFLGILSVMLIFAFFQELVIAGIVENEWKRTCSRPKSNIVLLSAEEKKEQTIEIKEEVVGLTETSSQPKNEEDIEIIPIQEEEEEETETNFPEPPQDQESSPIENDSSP
The assay is described as follows: cell-based or functional assay.

Assay [2] concerns the target T2, mutant human CD20 #8 (Y77F, N163D, N166D) (human, UniProt P11836 1-297).
T2 construct: Stably expressed on MG87 cells
T2 chain: T1 sequence with Y77F, N163D, N166D
The assay is described as follows: FACS, mutant-hCD20 MG87 cells; 100%=best antibody. The protocol: (§1) Briefly, approximately 1×10⁶ cells from each stably transfected cell line expressing a mutant human CD20 were collected and incubated with each anti-human antibody, at 10 μg/ml, on ice for 1 hr, followed by incubation with APC-conjugated goat anti-human IgG (Jackson Immunolabs), at 10 μg/ml, on ice for 45 min. For each antibody, binding to each mutant human CD20 was assessed by flow cytometry.
(In general: Flow cytometry measures light scatter and fluorescence of single cells or particles in a stream.)

Assay [3] has as its target T3, mutant human CD20 #1 (Y77F) (human, UniProt P11836 1-297).
T3 construct: Human residues replaced by mouse residues; stably expressed on MG87 cells
T3 sequence: T1 sequence with Y77F
Description: FACS, mutant-hCD20 MG87 cells; 100%=best antibody. The protocol: as §1

Assay [4] concerns the target T4, mutant human CD20 #5 (P172S) (human, UniProt P11836 1-297).
T4 construct: Stably expressed on MG87 cells
T4 sequence: T1 sequence with P172S
The assay is described as follows: FACS, mutant-hCD20 MG87 cells; 100%=best antibody. The protocol:
as §1

In assay [5] the target is T5, mutant human CD20 #3 (A170S, P172S) (human, UniProt P11836 1-297).
T5 construct: Stably expressed on MG87 cells
T5 chain: T1 sequence with A170S, P172S
The assay is described as follows: FACS, mutant-hCD20 MG87 cells; 100%=best antibody. The protocol: as §1

Assay [6] concerns the target T6, mutant human CD20 #10 (A157V) (human, UniProt P11836 1-297).
T6 construct: Stably expressed on MG87 cells
T6 sequence: T1 sequence with A157V
Description: FACS, mutant-hCD20 MG87 cells; 100%=best antibody. The procedure:
as §1

For assay [7], the target named is T7, mutant human CD20 #6 (Y77F, N166D) (human, UniProt P11836 1-297).
T7 construct: Stably expressed on MG87 cells
T7 chain: T1 sequence with Y77F, N166D
Description: FACS, mutant-hCD20 MG87 cells; 100%=best antibody. The procedure: as §1

The target of assay [8] is T1, human CD20. Description: cell-based or functional assay. The source holds these as a separate data set.

B1: 9D4-7 (antibody, V domains shown)
VH: EVQLVESGGGLVQPGRSLRLSCAASGFTFYDYAMHWVRQAPGKGLEWVSGISWNSDTIGYADSVKGRFTISRDNAKNSLYLQMNSLRAEDTALYYCTKDGSYGHFYSGLDVWGQGTTVTVSS
VL: EIVLTQSPATLSLSPGERATLSCRASQSVSSYLAWYQQKPGQAPRLLIYVASNRATGIPARFSGSGSGTDFTLTISSLEPDDFAVYYCQQRYYWPLTFGGGTKVEIK
notes: Fully human IgG, constant region not specified; also called 9D4-7N
B1: the “ADCC EC50 (pM), Daudi + PBMC” value in the assay with human CD20 [1] turned out to be 1.53 pM. Further, the “Percent of Binding to Mutant Human CD20” value in assay [2] came to 0%; in assay [3], 67%; in assay [4] it was 66%; in assay [5], 70%; in assay [6], 75%; in assay [7] it was 0%. Besides, the “CDC, Daudi EC50” value with human CD20 [8] worked out at 0.22 nM. For the same molecule, the “CDC, RL EC50” value with human CD20 [8] was 0.83 nM.

B2: 6B9-4 (antibody, V domains shown)
VH: EEQLVESGGDLVQPGRSLRLSCAASGFTFHDYTMHWVRQAPGKGLEWVSGISWNSGSIGYADSVKGRFTISRDNAKNSLYLQMNSLRIEDTALYYCAKDPSYGSGSYYYYYGMDVWGQGTTVTVSS
VL: B1 VL with A34V, K39R, V50E, P80S, D81E, Y92S, Y93N
notes: Fully human IgG, constant region not specified; also called 6B9-4N
As to B2, the “ADCC EC50 (pM), Daudi + PBMC” value with human CD20 [1] worked out at 4.27 pM. Also, the “Percent of Binding to Mutant Human CD20” value in assay [2] is 0%; in assay [3] it was 74%; in assay [4], 67%; in assay [5] it was 64%; in assay [6], 75%; in assay [7], 1%. For the same molecule, in the assay with human CD20 [8], the “CDC, Daudi EC50” value is 0.34 nM. Besides, the “CDC, RL EC50” value in the assay with human CD20 [8] worked out at 0.97 nM.

B3: 2B7-7 (antibody, V domains shown)
VH: EVQLVESGGGLVQPGRSLRLSCAASGFTFRDYTMHWVRQGPGKGLEWVSGISWNSDYIGYADSVKGRFTISRDNAKNSLYLQMNSLRVEDTALYYCAKLSGTYRDYFYGVDVWGQGTTVTVSS
VL: B1 VL with T20A, S31N, V50D, D81E, Y92S, Y93N, K107R
notes: Fully human IgG, constant region not specified; also called 2B7-7N
For B3, the “ADCC EC50 (pM), Daudi + PBMC” value with human CD20 [1] stood at 1.99 pM. Besides, the “Percent of Binding to Mutant Human CD20” value in assay [2] is 0%; in assay [3] it was 100%; in assay [4], 88%; in assay [5], 87%; in assay [6], 83%; in assay [7], 12%. In addition, the “CDC, Daudi EC50” value in the assay with human CD20 [8] was determined as 0.24 nM. Besides, in the assay with human CD20 [8], the “CDC, RL EC50” value worked out at 1.03 nM.

B4: 3H7-6 (antibody, V domains shown)
VH: B1 VH with D56G, T57Y, T97A, G100N, H104K, S107Y
VL: EIVMTQSPATLSVSPGERTTLSCRASQSVSSNLAWYLQKPGQAPRLLIYGASTRATGIPARFSGSGSGTEFILTISSLQSEDFAVYYCQQYNNWPITFGQGTRLEIK
notes: Fully human IgG, constant region not specified; also called 3H7-6N
Regarding B4, in the assay with human CD20 [1], the “ADCC EC50 (pM), Daudi + PBMC” value was 11.1 pM. In addition, the “Percent of Binding to Mutant Human CD20” value in assay [2] was 0%; in assay [3] it was 28%; in assay [4] it was 45%; in assay [5], 43%; in assay [6], 80%; in assay [7], 0%. Also, in the assay with human CD20 [8], the “CDC, Daudi EC50” value turned out to be 0.44 nM. In the assay with human CD20 [8], the “CDC, RL EC50” value was found to be 3.66 nM.

B5: 2C11-4 (antibody, V domains shown)
VH: EVQLVESGGGLVQPGRSLRLSCAASGFTFRDYAMHWVRQGPGKGLEWVSGISWNTDYIGYADSVKGRFTISRDNAKNSLYLQMNSLRPEDTALYYCAKDARYGRDNYYGMDVWGQGTTVTVSS
VL: EIVLTQSPATLSLSPGERATLSCRASQSVSRYLAWYQQKPGQAPRLLIHDASNRATGIPARFSGSGSGTDFTLTITSLEPEDFVVYYCQQRSDWPITFGQGTRLEIK
notes: Fully human IgG, constant region not specified; also called 2C11-4N
Consider B5, for which, in the assay with human CD20 [1], the “ADCC EC50 (pM), Daudi + PBMC” value is 1.45 pM. Besides, the “Percent of Binding to Mutant Human CD20” value in assay [2] came out at 0%; in assay [3], 35%; in assay [4], 30%; in assay [5], 11%; in assay [6], 68%; in assay [7] it was 1%. Besides, in the assay with human CD20 [8], the “CDC, Daudi EC50” value is above 50 nM. Also, in the assay with human CD20 [8], the “CDC, RL EC50” value was determined as 5.19 nM.

B6: 10E3-17 (antibody, V domains shown)
VH: EVQLVESGGGLVQPGRSLRLSCAASGFTFRDYAMHWVRQVPGKGLEWVSGISWNRGTIGYADSVKGRFTISRDNAKNSLFLQMNSLRADDTALYYCAKDHYYGSGSPYGMDVWGQGTTVTVSS
VL: EIVLTQSPATLALSPGERATLSCRASQSVSKYLAWYQQKPGQAPRLLIYDASKRVTGIPGRLSGSGSGTDFTLTISSLEPEDFALYYCQQSSNWPITFGQGTRVEIK
notes: Fully human IgG, constant region not specified; also called 10E3-17N
B6: the “ADCC EC50 (pM), Daudi + PBMC” value with human CD20 [1] stood at 1.2 pM. Besides, the “Percent of Binding to Mutant Human CD20” value in assay [2] amounted to 0%; in assay [3], 61%; in assay [4] it was 49%; in assay [5], 6%; in assay [6] it was 87%; in assay [7], 1%. Further, in the assay with human CD20 [8], the “CDC, Daudi EC50” value is 0.59 nM. For the same molecule, the “CDC, RL EC50” value with human CD20 [8] was 7.8 nM.
